# Where “and” joins values, the source holds several entries; their conditions need not be identical. Identical values can stand only once.
# T1: ALK2-Fc (UniProt Q04771 21-123)
# T1 chain: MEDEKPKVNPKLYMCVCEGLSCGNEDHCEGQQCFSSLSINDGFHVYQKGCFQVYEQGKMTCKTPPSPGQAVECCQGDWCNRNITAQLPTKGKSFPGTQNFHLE
# What was measured:
# Experiment in all cases: SPR
# ALK2-Fc = target: T1, ALK2-Fc
# [1] = target: T2, ALK1-Fc (ALK1 extracellular domain-Fc fusion protein) (UniProt P37023 22-118)
# [2] = target: T3, ALK1 extracellular domain (ALK1 ECD) (human, UniProt P37023 22-118)
# [3] = target: T2, ALK1-Fc (ALK1 extracellular domain-Fc …); remark: listed apart in the source
# [4] = target: T3, ALK1 extracellular domain (ALK1 ECD); remark: listed apart in the source
# T2 sequence (P37023 22-118): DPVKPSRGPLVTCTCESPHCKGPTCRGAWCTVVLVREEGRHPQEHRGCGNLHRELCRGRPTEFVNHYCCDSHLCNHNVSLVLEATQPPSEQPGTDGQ
# T3 sequence (P37023 22-118): as above
Binder,Kd (ALK2-Fc) [nM],Kd [1],Kd [2] [nM],koff [3] [s⁻¹],koff [4] [s⁻¹]
"BMP6-GF WT (protein, disulfide-linked GF-domain homodimer. The text gives no BMP6 construct, source or limits (named only in a figure), so the human mature chain is assumed.) not shown",19.2,,,,
BMP10 GF-domain (bone morphogenetic protein 10 growth factor domain) (ligand) NAKGNYCKRTPLYIDFKEIGWDSWIIAPPGYEAYECRGVCNYPLAEHLTPTKHAIIQALVHLKNSQKASKACCVPTKLEPISILYLDKGVVTYKFKYEGMAVSECGCR,,,0.0557,5.31e-05,8.5e-05
BMP9 GF-domain (bone morphogenetic protein 9 growth factor domain) (ligand) SAGAGSHCQKTSLRVNFEDIGWDSWIIAPKEYEAYECKGGCFFPLADDVTPTKHAIVQTLVHLKFPTKVGKACCVPTKLSPISVLYKDDMGVPTLKYHYEGMSVAECGCR,,,0.0716,6.19e-05,8.37e-05

# Other lines, results leading:
Kd (ALK2-Fc) [nM],Kd [1],Kd [2] [nM],koff [3] [s⁻¹],koff [4] [s⁻¹],Binder
,0.0187 nM and 0.0112 nM,0.017,3.44e-05,5.63e-05,"pro-BMP10 (prodomain-bound BMP10) (complex, furin-processed; prodomain non-covalently bound to the disulfide-linked GF-domain dimer; secreted from HEK EBNA cells. Limits are from the UniProt PROPEP and CHAIN features.) chain 1: SPIMNLEQSPLEEDMSLFGDVFSEQDGVDFNTLLQSMKDEFLKTLNLSDIPTQDSAKVDPPEYMLELYNKFATDRTSMPSANIIRSFKNEDLFSQPVSFNGLRKYPLLFNVSIPHHEEVIMAELRLYTLVQRDRMIYDGVDRKITIFEVLESKGDNEGERNMLVLVSGEIYGTNSEWETFDVTDAIRRWQKSGSSTHQLEVHIESKHDEAEDASSGRLEIDTSAQNKHNPLLIVFSDDQSSDKERKEELNEMISHEQLPELDNLGLDSFSSGPGEEALLQMRSNIIYDSTARIRR chain 2: NAKGNYCKRTPLYIDFKEIGWDSWIIAPPGYEAYECRGVCNYPLAEHLTPTKHAIIQALVHLKNSQKASKACCVPTKLEPISILYLDKGVVTYKFKYEGMAVSECGCR"
86.2,0.0392 nM and 0.0612 nM,0.0929,4.84e-05,8.46e-05,pro-BMP9 (prodomain-bound BMP9) (complex) chain 1: KPLQSWGRGSAGGNAHSPLGVPGGGLPEHTFNLKMFLENVKVDFLRSLNLSGVPSQDKTRVEPPQYMIDLYNRYTSDKSTTPASNIVRSFSMEDAISITATEDFPFQKHILLFNISIPRHEQITRAELRLYVSCQNHVDPSHDLKGSVVIYDVLDGTDAWDSATETKTFLVSQDIQDEGWETLEVSSAVKRWVRSDSTKSKNKLEVTVESHRKGCDTLDISVPPGSRNLPFFVVFSNDHSSGTKETRLELREMISHEQESVLKKLSKDGSTEAGESSHEEDTDGHVAAGSTLARRKR chain 2: SAGAGSHCQKTSLRVNFEDIGWDSWIIAPKEYEAYECKGGCFFPLADDVTPTKHAIVQTLVHLKFPTKVGKACCVPTKLSPISVLYKDDMGVPTLKYHYEGMSVAECGCR

# — PMC7113306 (2020)
